This note sets out measurements from PMC3849134.

Read-outs that look alike come from different tables or passages of the source.

Common to all, as to test: radioligand binding
In test [1] the target is self-assembling peptide AcN-(KLDL)3-CNH2.
The target is the same in test [2]. The source holds these as a separate data set.
Test [3] shares this target. The source holds these as a separate data set.

“^125I-TGF-β1 (radiolabelled transforming growth factor β1) (ligand)”: in test [1], the percent of loaded released (cumulative), day 3 was 13 to 16%; the percent of loaded released (cumulative), day 7 came out at 25%; the percent of loaded released (cumulative), day 14 was 27%; the percent of loaded released (cumulative), day 21 is 32%. Further, in test [1], the percent of loaded retained in the hydrogel, day 21 amounted to 68% and the uptake ratio (concentration in gel / concentration in bath) was determined as 18.5. Moreover, in test [2], the uptake ratio (concentration in gel / concentration in bath) is 85.8. For the same substance, in test [3], the percent of loaded released (cumulative), day 21 was found to be 44% and the percent of loaded retained in the hydrogel, day 21 worked out at 56%.
